Ends that are not written are not given here. * marks the point of attachment. Biotin = O=C1N[C@H]2[C@H](CS[C@H]2CCCCC(=O)*)N1
B1: anti-MS4A4A antibody 4A-21 (murine) (antibody, IgG1, V domains shown)
VH: QIQLVQSGPELKKPGETVKISCKASGYIFTSYGLSWVKQTPGKGLKWMGWINTYSGVPTYANDFKGRFAFSLETSASTTYLRINNLKNDDTATYFCARSLVDYWGQGTPLTVSS
VL: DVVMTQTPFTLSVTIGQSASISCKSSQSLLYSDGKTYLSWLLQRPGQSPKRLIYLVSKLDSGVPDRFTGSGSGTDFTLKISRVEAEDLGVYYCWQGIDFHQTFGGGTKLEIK
notes: murine hybridoma antibody, msIgG1; also called 4A-21 (msIgG1)
B2: anti-MS4A4A antibody 4A-219 (murine) (antibody, V domains shown)
VH: QVQMKQSGPGLVQPSQSLSITCTVSGFSLTSYGVHWVRQSPGKGLEWLGVIWSGGSTDYNAAFISRLSISKDNSKSQVFFKMNSLQADDTAIYYCVRLYYGYDGFAYWGQGTLVTVSS
VL: DIVMTQSHKFMSTSVGDRVSITCKASQDVSTAVAWYQQKPGQSPKLLIYSASYRYTGVPDRFTGSGSGTDFTFTISSVQAEDLAVYYCQQHYSTPLTFGAGTKLELK
notes: murine hybridoma antibody

Experiments:
[1] = molecular target: T1, cynomolgus (cyno) MS4A4A (cynomolgus); experiment: FACS, HEK293, supernatant
T1 construct: also called cy4A; Cyno 4A

[2] = molecular target: T2, human MS4A4A ECL1 peptide (amino acid residues 86-98) (human); experiment: peptide ELISA
T2 construct: synthetic peptide
T2 peptide: CMASNTYGSNPIS
Outline: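 Free or BSA-conjugated peptides were coated at 2 or 10 […] in 0.05M carbonate buffer, pH 9.6, overnight at 4 °C, then blocked 1 h with PBS+0.5% BSA+0.05% Tween20. Antibodies were bound 30 min at room temperature with shaking. TMB was developed 5-10 min, stopped, and absorbance read at 650 nm.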

[3] = molecular target: T3, peptide 4A.5 (human); experiment: array SPR, peptide on streptavidin chip
T3 construct: 15-mer of human MS4A4A
T3 peptide: Biotin-LAFYSFHHPYCNYYG
Procedure: (§1) Epitope binding characteristics of anti-MS4A4A antibodies are determined by two complementary approaches. First, a panel of overlapping peptides derived from the extracellular loops (ECLs) of human MS4A4A (SEQ ID NO:1) and human MS4A6A (SEQ ID NO: 291) were synthesized by JPT peptides (Berlin, Germany). These peptides were 15 amino acids in length, each offset by 2 amino acids. The peptides were biotinylated on the N-terminus. […] Anti-MS4A4A antibodies of the present disclosure and commercially-available anti-MS4A4A antibodies were tested for binding to the various linear peptides by Carterra (South San Francisco, Calif., USA) using a proprietary array SPR instrument (MX-96).
(§2) The peptide library was printed onto a streptavidin-coated chip (Xantec SAD50M, Dusseldorf, Germany) using the Continuous Flow Microspotter (CFM). First, the chip was activated with 100 mM MES, pH 5.5, 100 μL EDC (133 mM final), 100 μL of S-NHS (33.3 mM final). The peptide library was immobilized onto the chip at 250 nM per peptide diluted into HBS-EP+buffer (Teknova Cat # H8022) with 1 mg/ml BSA and 1 μg/ml mouse IgG-Biotin. Following immobilization, the chip surface was deactivated with 1M ethanolamine at pH 8.5 for 10 minutes. Hybridoma supernatants and purified anti-MS4A4A antibodies were diluted in HBS-EP+buffer with 1 mg/ml BSA and injected onto the chip. Duplicate measurements for each anti-MS4A4A antibody were taken to ensure reproducibility. Binding characteristics were determined for each peptide-antibody combination, allowing the mapping of the linear peptide region each antibody interacts with.

[4] = molecular target: T4, peptide 4A.2 (human); experiment: array SPR, peptide on streptavidin chip
T4 construct: 15-mer of human MS4A4A
T4 peptide: Biotin-MMCMASNTYGSNPIS
Procedure: as §1, §2

[5] = molecular target: T5, peptide 4A.4 (human); experiment: array SPR, peptide on streptavidin chip
T5 construct: 15-mer of human MS4A4A
T5 peptide: Biotin-ASNTYGSNPISVYIG
Procedure: as §1, §2

[6] = molecular target: T6, peptide 4A.3 (human); experiment: array SPR, peptide on streptavidin chip
T6 construct: 15-mer of human MS4A4A
T6 peptide: Biotin-CMASNTYGSNPISVY
Procedure: as §1, §2

[7] = molecular target: T7, peptide 4A.12 (human); experiment: array SPR, peptide on streptavidin chip
T7 construct: 15-mer of human MS4A4A
T7 peptide: Biotin-GNSNNCHGTMSILMG
Procedure: as §1, §2

[8] = molecular target: T8, peptide 4A.11 (human); experiment: array SPR, peptide on streptavidin chip
T8 construct: 15-mer of human MS4A4A
T8 peptide: Biotin-YYGNSNNCHGTMSIL
Procedure: as §1, §2

[9] = molecular target: T9, peptide 4A.8 (human, cysteine pairing not given here); experiment: array SPR, peptide on streptavidin chip
T9 construct: 15-mer of human MS4A4A
T9 peptide: Biotin-HHPYCNYYGNSNNCH
Procedure: as §1, §2

[10] = molecular target: T10, peptide 4A.9 (human, cysteine pairing not given here); experiment: array SPR, peptide on streptavidin chip
T10 construct: 15-mer of human MS4A4A
T10 peptide: Biotin-PYCNYYGNSNNCHGT
Procedure: as §1, §2

[11] = molecular target: T11, peptide 4A.10 (human, cysteine pairing not given here); experiment: array SPR, peptide on streptavidin chip
T11 construct: 15-mer of human MS4A4A
T11 peptide: Biotin-CNYYGNSNNCHGTMS
Procedure: as §1, §2

[12] = molecular target: T12, peptide 4A.7 (human); experiment: array SPR, peptide on streptavidin chip
T12 construct: 15-mer of human MS4A4A
T12 peptide: Biotin-SFHHPYCNYYGNSNN
Procedure: as §1, §2

[13] = molecular target: T13, peptide 4A.6 (human); experiment: array SPR, peptide on streptavidin chip
T13 construct: 15-mer of human MS4A4A
T13 peptide: Biotin-FYSFHHPYCNYYGNS
Procedure: as §1, §2

[14] = molecular target: T14, peptide 4A.1 (human); experiment: array SPR, peptide on streptavidin chip
T14 construct: 15-mer of human MS4A4A
T14 peptide: Biotin-ITMMCMASNTYGSNP
Procedure: as §1, §2

[15] = molecular target: T15, human MS4A4A ECL2 peptide (amino acid residues 159-179), free (human); experiment: array SPR (Carterra MX-96), antibody captured, peptide in solution
T15 construct: synthetic peptide; also called huMS4A4A-ELC2 free-peptide
T15 peptide: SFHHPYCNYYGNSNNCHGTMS
Procedure: Binding kinetic characterization of the anti-MS4A4A antibodies to MS4A4A ECL1 and ECL2 and to MS4A6A ECL1 and ECL2 peptides was performed by Carterra (South San Francisco, Calif.) using a proprietary array Surface Plasmon Resonance (SPR) instrument (MX-96) as follows. Antibodies were captured onto a CMD500D chip (Xantec # SPMX CMD500D) using the Continous Flow Microspotter (CFM). First, the chip was activated with 100 mM MES pH 5.5, 100 μL EDC (133 mM final), 100 μL of S-NHS (33.3 mM final), for 7 minutes. […] Anti-MS4A4A hydridoma supernatant or purified anti-MS4A4A antibodies were diluted in HBS-EP+ buffer (Teknova Cat # H8022) and then printed as duplicates with a 20 minute and a 5-minute print from the same sample solution.
These were then injected on the chip for five minutes, followed by a seven-minute dissociation period at 8 uL per second in a non-regenerative kinetic series. Duplicate measurements for each anti-MS4A4A antibody were taken to ensure reproducibility. Association rates (Kon) and dissociation rates (Koff) were calculated using a single one-to-one Langmuir binding model. The equilibrium dissociation constant (KD) was calculated as the ration of Koff/Kon.

[16] = molecular target: T15, human MS4A4A ECL2 peptide (amino acid …); experiment: peptide ELISA, supernatant
[17] = molecular target: human MS4A4A (human, UniProt Q96JQ5 1-239); experiment: FACS, U937 cells, supernatant; U937 cells overexpressing h4A, ratio over parental U937; parental U937 itself scores +
Procedure: Positive clones identified in Example 22 above were expanded and then rescreened for specificity against U937, K562, and/or 300.19 cells stably overexpressing human MS4A4A or cyno MS4A4A and parental U937, K562, and/or 300.19 cells. These experiments were performed using supernatants from hybridoma clones which had undergone further expansion after initial selection. Briefly, stably transfected cells were labeled with LIVE/DEAD Fixable Aqua Dead Cell Stain Kit (ThermoFisher Scientific Cat#L34957) on ice for 30 minutes. […] 2×10⁵ cells were aliquoted per well in 96-well U-bottom plates and incubated with 50 μl of culture supernatant on ice for 30 minutes. […] Following this secondary incubation, the cells were again washed twice with ice-cold FACS buffer and resuspended in a final volume of 200 μl of FACS buffer. Analysis was performed on a FACS Canto system (BD Biosciences), with gates drawn to exclude dead (Aqua-positive) cells.
The APC ratio was calculated for each antibody as follows. […] For cell lines overexpressing human MS4A4A (h4A) or cyno MS4A4A (cy4A), the ration was calculated by comparing the binding measured to the binding observed on the corresponding parental cell lines.

Binder | Cyno 4A:parental cell ratio [1] [ratio] | binding result [2] | SPR binding signal [3] | SPR binding signal [4] | SPR binding signal [5] | SPR binding signal [6] | SPR binding signal [7] | SPR binding signal [8] | SPR binding signal [9] | SPR binding signal [10] | SPR binding signal [11] | SPR binding signal [12] | SPR binding signal [13] | SPR binding signal [14] | Kd [15] [nM] | koff [15] [s⁻¹] | kon [15] [M⁻¹ s⁻¹] | binding result [16] | fold increase in MFI [17] [fold]
B1 | 1.31 | no binding | 383 | -11.5 | -7.9 | -10.6 | -5.2 | -6.5 | 309 | 225 | -4.5 | 446 | 486 | -11.2 | 31 | 0.0078 | 250000 |  | 
B2 |  | no binding |  |  |  |  |  |  |  |  |  |  |  |  |  |  |  | no binding | > 2

— patent US20230126400A1 (Alector, published 2023)
